Test results taken from article PMC8256087.

Target: SecYEG(148/298) labeled with Cy3 and Atto647N, embedded in nanodiscs (UniProt P0AGA2)
Experiment: not stated; ratio of YidC to SecY in nanodiscs prepared with YidC at a concentration equal to that of SecYEG (SI Appendix, Fig. S9A)

stoichiometry N: 1 YidC:SecY
B1: YidC (natural protein)
chain: MDSQRNLLVIALLFVSFMIWQAWEQDKNPQPQAQQTTQTTTTAAGSAADQGVPASGQGKLISVKTDVLDLTINTRGGDVEQALLPAYPKELNSTQPFQLLETSPQFIYQAQSGLTGRDGPDNPANGPRPLYNVEKDAYVLAEGQNELQVPMTYTDAAGNTFTKTFVLKRGDYAVNVNYNVQNAGEKPLEISSFGQLKQSITLPPHLDTGSSNFALHTFRGAAYSTPDEKYEKYKFDTIADNENLNISSKGGWVAMLQQYFATAWIPHNDGTNNFYTANLGNGIAAIGYKSQPVLVQPGQTGAMNSTLWVGPEIQDKMAAVAPHLDLTVDYGWLWFISQPLFKLLKWIHSFVGNWGFSIIIITFIVRGIMYPLTKAQYTSMAKMRMLQPKIQAMRERLGDDKQRISQEMMALYKAEKVNPLGGCFPLLIQMPIFLALYYMLMGSVELRQAPFALWIHDLSAQDPYYILPILMGVTMFFIQKMSPTTVTDPMQQKIMTFMPVIFTVFFLWFPSGLVLYYIVSNLVTIIQQQLIYRGLEKRGLHSREKKKS
